# Laboratory results: the DeepSol protein solubility set
# Test: soluble on expression in E. coli; label from the status in PepcDB or PDB records
row,Sequence,soluble on expression in E. coli
1,MEIERRLVLEVVRVTEQAALAASRFAGKGDKEAVDEAGTQAMRRVLNELPIRGTVVIGEGEMDEAPMLYIGEVLGQGGLEVDIAVDPVEGTTTVAKGLPNAVTVIALSEKGGLFHAPDMYMEKLIVPPSAVGLVDLTWPVSVNLRALALALQRSVEDLVVVVLEPPRHERLIREIRKAGAPVKLISDGDVIAALAAAIRGTGVHAVMGIGGAPEGVLTAAALKCLGGEIQARFVPQNEEERERLKAMGGDEHRIYKTEDLAPGKEIVFAATGITDGDILEGVRFFGGGARTHSIVMGHATRVVRFIDSIHLFETGARVTIRV,soluble
2,MEIKDTYNIGELSPGMTATFEGEVISALPIKEFKRADGSIGKLKSFIVRDETGSIRVTLWDNLTDIDVGRGDYVRVRGYIREGYYGGLECTANYVEILKKGEKIESLEHHHHHH,not soluble
3,MEIMLTYKTFKILGREILIGVVWEEKIQGIAYSLDGLEFLKDQLSRVTSHLKSRGVKVNLLEEKSRYPDLVFDVLKGKIGNEKGFEELSLEGLTRFEIKVYSWLVKNVKRGEVITYGKVAKALKTSPIAVGGAMKRNPYPIIVPCHRVVGKNNPWLYTPKPSYKKFLLEVEGWIS,soluble
4,MEIQFLGTGAGQPAKARNVSSLVLKLLDEINEVWMFDCGEGTQRQILETTIKPRKVKKIFITHMHGDHVFGLPGFLSSRAFQANEEQTDLDIYGPVGIKSFVMTALRTSGSRLPYRIHFHEFDESSLGKIMETDKFTVYAEKLDHTIFCMGYRVVQKDLEGTLDAEALKLAGVPFGPLFGKVKNGENVTLEDGREIIAKDYISEPKKGKVITILGDTRKTDASIRLALGADVLVHESTYGKGDERIAKSHGHSTNMQAADIAKQANAKRLLLNHVSARFMGRDCWQMEEDAKTIFSNTHLVRDLEEVGILEHHHHHH,soluble
5,MEITDVRLRRVETDGRMKAISSITIDGEFVIHDIRVIDGNEGLFVAMPSKRTPDGEFRDIAHPINSGTRAKIQEAVLAAYEVADEPAVNEESSADESVVEEN,not soluble
6,MEKAPLLLETVEQAVRILQESPFVAIWNYKVLSVQAGAVALALPAQPQFYRPGGIIQGGCLMTLADTAFWLAAMTELGIDAPIVTLEMKTHFLRAAQADVYCRAEVMKSGRRVTYGTATITDAAGQTLSHHTLTYLAA,not soluble
7,MEKEKKGAKHELDLSSILQFVAPGTPLRAGMENVLRANTGGLIVVGYNDKVKEVVDGGFHINTAFSPAHLYELAKMDGAIILSDSGQKILYANTQLMPDATISSSETGMRHRTAERVAKQTGCLVIAISERRNVITLYQENMKY,not soluble
8,MEKILEKIEEFFGFIPEIFKVLEDEPEILEAYYDKMEKILSNDALPLVTKELIGVGAAAALGSEHCLKTHIKAAKRLDAGGDEILLAILIGASMAESTALSRSLRVFKEERMDL,not soluble
9,MEKLAAKVLENFDFLKKLLRDRAECGESEITIYDDPVTIVVKRDRIDFFINEEYHGSVGVGFNTLSDEIREEARLWLEGLAGMKFKRYAVRR,not soluble
10,MEKLAIGVDVGTTQAKAVAFQANGTVVASSYVRYPLIQETEGMAEQDPETLFQAVVNCIRTVTQQVKNQPIGLISFASAMHGLIAMDAQGRPLTQVITWADTRASDYAEALKETPAAQLFYQLTGMPVHPMAPLYKIRWLQENQPAVAQSAAKFIGIKDYIFYRFFGEYWTDYSSASGMGLFNIHTRQWETSILAYLSIEEEQLPKVAPSTFIFPALAPSWQEMLGVEEETVLVLGGADGPLSNLGLGALGMGVATLTVGTSGALRYIVEEPFLHPQGETFCFALDEQHWVIGGASSNGAVALDWASQTIFAEERQQAIQNGTNLYDPIMAKIATVPAGANGLLFHPYLLGERAPLWNAEASASFIGLRKNHHAGHLARAVVEGICFNLKTILEDLKQLGGPVQEIRATGGFADSPVFRQIMADVLGETLSFTDSTEASALGAVLLGWQGLGQLPNLQAAAQQVLIHETVTPRADQLLVYQELYPVFQETQQVLAQSYQKLAEFRK,not soluble
11,MEKLLSELAELGARQKFNGEIDFGAEIASDSLLEVMKIVGSEELSQQVLEGFLEQAPTIHQVLLGMTFASYLQSTTSGEASPGAQELSEPLKKARRSIRLLLNLTQRSPDFASRISSESVELLETLLATGSFDVECLIILLKTSQATWLEFQKSPRYSALLQRVLSKYSPDFSENSTILAYFSVLFEMDYGFLSMCYAEMDAPTFCEILDVLRVILTRKTLKIHSNNLLFVLNLLELVVVDYEAFWRARERKEPQSVEQRRVATVEILNLEVEIVGEMCSNTEMTSYLNEKATAMNSVVDVLDAVSIFRNKISIFLDFFQILHAEALFADFRAEQPSDWPKIESEHPRFEVLKRKIEEERRYEETQRRYPDRPRQPLPPKIQRVESSESLSLLANTIFSKYRSIDDVIGVPRVGELKLNCLKAIANLANLSDSNKLATLQNGRQGLISVLQCTTRRPEYFLESFTMRNQSIFCVRQLTDGCQENKEVVFNLQQPNQPIIDRKRLLEELGVHVDN,not soluble
12,MEKLVAYKRMPLWNKQTMPEAVQQKHNTKVGTWGKITVLKGALKFIELTEEGEVLAEHLFEAGADNPMAQPQAWHRVEAATDDVEWYLEFYCKPEDYFAKKYNTNPVHSEVLEAMQTVKQGKALDLGCGQGRNSLFLAQQDFDVTAVDQNGLALEILQSIVEQEDLDMPVGLYDINSASIEQEYDFIVSTVVLMFLQADRIPAIIQNMQEKTSVGGYNLIVCAMDTEDYPCSVNFPFTFKEGELADYYKDWELVKYNENPGHLHRRDENGNRIQLRFATLLAKKIK,not soluble
13,MEKNRSAFQQNQQASNQPFNQDQNQYYQDPNQQQFNQSGFDPNQQQFNQPGFDPNQQYYQDPNQQQFNQAGFDQNQQYYQDPNQQQFNQPGFDPNQQYYQDPNQQQFNQAGFDQNQYYQDPNQQQFNQSGFDQNQYYQDPNQQQFNQPSFDLNNQQFNQPGFNQSPAFEITPQEQKAEQEMFGEEPPQVVREIHELPFEKIRSFLQSDFDSYNFRLNSLKSKLDNALYSLDKTIQNTNENTANLEAIRHNLEQKIQNQSKQLRTNFDTQKLDDKINELEIRMQKLTRNFESLSELSKHNSYPNYYEKLLPNGGDSMTNVFEKALMMNLLRTTLPPQPQVQYYPQPYPYIRPYYDEPIYAGFRRRGYRDDFYE,soluble
14,MEKQEEEDVKRRQRQKAATSLGFLHWEELKNHGDLSKVALNIALTTLVDDASTGFCIMNLVNLIVLRESSQGYLLTYEGKLASLASATYVKAFISLWVLEDAERHAWSFRTFSLTFPLDDPILDTFLELTGVTEAGEFVYAPTTLQSPFHALYFDPQRNSFRRVIYEGLADDEFRRRNRLGYERHHILPNHIESLISL,soluble
15,MEKSEIQKVDQVIRAWLEDEPLMYERLLEVEALEALPQVLGPLYKFLGRSRIHDGVLYLTFNSSVVRSQLSNNKAELLLRLNTAVDAELIRQIVFL,not soluble
16,MEKSVSVILLAGGQGKRMKMSMPKQYIPLLGQPIALYSFFTFSRMPEVKEIVVVCDPFFRDIFEEYEESIDVDLRFAIPGKERQDSVYSGLQEIDVNSELVCIHDSARPLVNTEDVEKVLKDGSAVGAAVLGVPAKATIKEVNSDSLVVKTLDRKTLWEMQTPQVIKPELLKKGFELVKSEGLEVTDDVSIVEYLKHPVYVSQGSYTNIKVTTPDDLLLAERILSEDS,soluble
17,MEKTVIGVVHLLPLPGSPEHTDLSAVIDKAVKDARAIEEGGADALILENYGDKPFLKEVGKETVAAMTVIACEVKRDVSIGLGINVLRNDAVAALAIAKAVNADFVRVNQLFFTSVSPEGILEGKAGEVMRYKKLVDCRAMIFADIAVKHAVHFASLEDYCLNAERSLADAVILTGKTTGGEVSLEELKYAKKTLKMPVLAGSGVNAENAARILKWCDGVIVGTYIKRGGLVDAERVRRIVRAAKGLEHHHHHH,not soluble
18,MEKVNPKIQRLMSTDKQHFLTKHEFHTKETAERKDLLKFFIETRLKTDGGFLTNYLPDAERKDVATGHELLSESSGLYLRNLAFDTQGRFDNFYKQTKDTFYDGVQFSYRIDEQGNKYNVNASIDDLRIIRSLIEAGGHFKTDQYDQEIKKLGKSFMKTSMKDNILIDFYDSKSKQQSSETSLFYIDLITLGYLYKEFGISADYLQYHYQLIDDGYISDDLPLYQTKFNHQTNKYENNGTLNIIESLLTIVHLSEVGMAKQTSIDFVRKQVQQGTLFNSYDLNGSPVDKNQSAASYAIAALIGVAENDKELYRAAITVLNNFQIMDSSSPIYGGFGDKVTKQVYSYNNLMALLAYDF,not soluble
